The results in this text go back to patent US20070092940A1.

One may read the Kd as the free concentration of one partner at which half of the binding sites on the other are occupied at equilibrium, for simple one-to-one binding. Read a low Kd as a tighter complex.

The target in the assay is rabbit albumin (rabbit) (UniProt P49065). Put plainly: BIAcore kinetic analysis.
Chain of rabbit albumin (rabbit) (P49065 25-608 limits assumed): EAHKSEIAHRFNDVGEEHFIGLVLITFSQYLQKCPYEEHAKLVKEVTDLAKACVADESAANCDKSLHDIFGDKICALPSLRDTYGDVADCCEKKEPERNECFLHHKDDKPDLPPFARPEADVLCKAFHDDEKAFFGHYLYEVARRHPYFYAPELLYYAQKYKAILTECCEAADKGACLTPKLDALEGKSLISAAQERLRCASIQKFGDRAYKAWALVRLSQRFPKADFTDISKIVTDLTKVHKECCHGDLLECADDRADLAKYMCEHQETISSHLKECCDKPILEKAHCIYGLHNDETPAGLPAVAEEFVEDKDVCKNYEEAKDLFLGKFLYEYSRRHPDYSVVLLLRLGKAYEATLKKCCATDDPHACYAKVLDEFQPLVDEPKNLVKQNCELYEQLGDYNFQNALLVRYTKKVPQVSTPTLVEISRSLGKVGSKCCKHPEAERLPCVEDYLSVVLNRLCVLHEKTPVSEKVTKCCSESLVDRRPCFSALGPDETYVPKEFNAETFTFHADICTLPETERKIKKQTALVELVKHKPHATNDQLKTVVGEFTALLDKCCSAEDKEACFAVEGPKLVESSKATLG

On to ABP-hu4D5Fabv8 wild type, for which the Kd came out at 124 nM.
